# In patent US6153391A, “Interruption of binding of MDM2 and P53 protein and therapeutic application thereof” (University of Dundee, priority 1998, dated 2000):
# Target: T1, mouse MDM2 (Mus musculus, UniProt P23804)
# T1 construct: gene PCR-cloned from mouse prostate cell line
# Test: ELISA of MDM2 binding to immobilised biotinylated p53 peptides (peptide library, alanine and conserved substitution series)
# Details: consensus peptide and alanine substitution series, Example 3, FIG. 5
# Procedure: The libraries were in the form of 15 mer peptides linked to biotin via an additional peptide spacer region of serine-glycine-serine-glycine, and each peptide shared a 5 amino acid overlap with the previous peptide in the primary sequence. ELISA plates were coated with 100 μof 5 μg/ml streptavidin (vector labs) per well and incubated overnight at 37° C. and then blocked with phosphate buffered saline (PBS) containing 2% bovine serum albumin (BSA) for 1 hour at room temperature. The stock biotinylated peptides were diluted to 5 μg/ml in PBS containing 0.1 BSA and 50 μl of each were plated into designed wells and then incubated at room temperature for 1 hour. […] In the case of cell extracts bound protein was detected with the appropriate primary antibody at 1-3 μg/ml, and followed by an anti-mouse horse radish peroxidase conjugate and 3'3'4'4'-tetramethyl benzidine (TMB) substrate as in the standard ELISA assay (Harlow, E., et al (1988). Antibodies: a laboratory manual. New York. Cold Spring Harbor Laboratory Press and Lane, 1988).
# These libraries consisted of 15 amino acid long sections of the p53 primary amino acid sequence, that consecutively overlapped by 5 amino acids, and were each attached to biotin via a 4 amino acid long spacer. […] The results are presented alongside the ELISA readings for extract of insect cells alone not expressing mouse MDM2. […]
# T1 sequence (P23804 whole entry): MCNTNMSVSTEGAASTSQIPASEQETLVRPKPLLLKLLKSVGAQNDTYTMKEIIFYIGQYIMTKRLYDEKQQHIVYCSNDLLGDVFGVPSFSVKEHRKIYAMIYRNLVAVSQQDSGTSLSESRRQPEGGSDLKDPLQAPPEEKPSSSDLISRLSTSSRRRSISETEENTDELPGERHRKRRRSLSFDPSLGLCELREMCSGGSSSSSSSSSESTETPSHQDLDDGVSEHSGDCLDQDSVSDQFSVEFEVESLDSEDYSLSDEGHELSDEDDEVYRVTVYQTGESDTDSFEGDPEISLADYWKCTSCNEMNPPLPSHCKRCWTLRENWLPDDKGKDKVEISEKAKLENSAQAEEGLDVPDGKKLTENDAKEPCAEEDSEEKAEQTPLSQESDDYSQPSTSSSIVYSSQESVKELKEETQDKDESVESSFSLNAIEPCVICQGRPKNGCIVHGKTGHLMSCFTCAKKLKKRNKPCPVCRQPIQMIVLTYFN
sequence,measurement,value
QETFSDLWKL,level of MDM2 binding as measured by ELISA,higher level of binding of MDM2
